Experimental data reported in paper PMC3535264.

Legend:
[1] = molecular target: mouse Nap1 (mNap1) single-cysteine mutant labeled with Alexa 546-C5-maleimide (mouse) (UniProt P28656); assay: other fluorescence titration
[2] = molecular target: tetrasome (DNA-(H3-H4)2 tetramer complex) (Xenopus laevis) (UniProt P84233); assay: FRET or BRET

Row | Kd [1] | Kd [2] | Substance
1 | 0.4 nM |  | uH2B containing histone dimer (H2A-uH2B) (from UniProt P06897 1-130; P0CG48 1-76) (complex)
2 | 0.5 nM |  | uH2A containing histone dimer (uH2A-H2B) (from UniProt P0CG48 1-76; P02281 1-126) (complex)

Further lines, the substance ahead of its results:

Row | Substance | Kd [1] | Kd [2]
3 | unmodified H2A-H2B histone dimer (from UniProt P06897 1-130; P02281 1-126) (complex) | 0.8 nM | 
4 | H2A_(A488)-H2B histone dimer (from UniProt P02281 1-126) (complex) |  | 0.7 nM
5 | H2A-H2B_(A488) histone dimer (from UniProt P06897 1-130) (complex) |  | 0.8 nM
